Legend:
Experiment in all cases: cell-based or functional assay
[1] = target: HIV-1 Env of pseudovirus 1054_07_TC4_1499 (HIV-1)
[2] = target: HIV-1 Env of pseudovirus 1394C9G1(Rev-) (HIV-1)
[3] = target: HIV-1 Env of pseudovirus 235-47 (HIV-1)
[4] = target: HIV-1 Env of pseudovirus 249M B10 (HIV-1)
[5] = target: HIV-1 Env of pseudovirus 3016.v5.c45 (HIV-1)
[6] = target: HIV-1 Env of pseudovirus 3817.v2.c59 (HIV-1)
[7] = target: HIV-1 Env of pseudovirus 6480.v4.c25 (HIV-1)
[8] = target: HIV-1 Env of pseudovirus 6540.v4.c1 (HIV-1)
[9] = target: HIV-1 Env of pseudovirus 928-28 (HIV-1)
[10] = target: HIV-1 Env of pseudovirus A07412M1.vrc12 (HIV-1)
[11] = target: HIV-1 Env of pseudovirus BJOX010000.06.2 (HIV-1)
[12] = target: HIV-1 Env of pseudovirus C2101.c01 (HIV-1)
[13] = target: HIV-1 Env of pseudovirus CNE19 (HIV-1)
[14] = target: HIV-1 Env of pseudovirus CNE20 (HIV-1)
[15] = target: HIV-1 Env of pseudovirus CNE8 (HIV-1)
[16] = target: HIV-1 Env of pseudovirus Ce1086_B2 (HIV-1)
[17] = target: HIV-1 Env of pseudovirus Ce1172_H1 (HIV-1)
[18] = target: HIV-1 Env of pseudovirus Ce1176_A3 (HIV-1)
[19] = target: HIV-1 Env of pseudovirus Ce2010_F5 (HIV-1)
[20] = target: HIV-1 Env of pseudovirus REJO4541.67 (HIV-1)
[21] = target: HIV-1 Env of pseudovirus T278-50 (HIV-1)
[22] = target: HIV-1 Env of pseudovirus THRO4156.18 (HIV-1)
[23] = target: HIV-1 Env of pseudovirus WEAU_d15_410_787 (HIV-1)
[24] = target: HIV-1 Env of pseudovirus WITO4160.33 (HIV-1)
[25] = target: HIV-1 Env of pseudovirus YU-2 (HIV-1) (UniProt P35961)
[26] = target: HIV-1 Env of pseudovirus ZM109F.PB4 (HIV-1)
[27] = target: HIV-1 Env of pseudovirus ZM249M.PL1 (HIV-1)
[28] = target: HIV-1 envelope of pseudovirus 1394C9G1(Rev-) (HIV-1)
[29] = target: HIV-1 envelope of pseudovirus 231965.c01 (HIV-1)
[30] = target: HIV-1 envelope of pseudovirus 3817.v2.c59 (HIV-1)
[31] = target: HIV-1 envelope of pseudovirus 6540.v4.c1 (HIV-1)
[32] = target: HIV-1 envelope of pseudovirus 6545.v4.c1 (HIV-1)
[33] = target: HIV-1 envelope of pseudovirus 6952.v1.c20 (HIV-1)
[34] = target: HIV-1 envelope of pseudovirus 89-F1_2_25 (HIV-1)
[35] = target: HIV-1 envelope of pseudovirus BJOX025000.01.1 (HIV-1)
[36] = target: HIV-1 envelope of pseudovirus CNE8 (HIV-1)
[37] = target: HIV-1 envelope of pseudovirus Ce703010054_2A2 (HIV-1)
[38] = target: HIV-1 envelope of pseudovirus Du172.17 (HIV-1)
[39] = target: HIV-1 envelope of pseudovirus P1981_C5_3 (HIV-1)
[40] = target: HIV-1 envelope of pseudovirus Q451.e2 (HIV-1)
[41] = target: HIV-1 envelope of pseudovirus R2184.c04 (HIV-1)
[42] = target: HIV-1 envelope of pseudovirus T250-4 (HIV-1)
[43] = target: HIV-1 envelope of pseudovirus T255-34 (HIV-1)
[44] = target: HIV-1 envelope of pseudovirus T278-50 (HIV-1)
[45] = target: HIV-1 envelope of pseudovirus WEAU_d15_410_787 (HIV-1)
[46] = target: HIV-1 envelope of pseudovirus X1632_S2_B10 (HIV-1)
[47] = target: HIV-1 envelope of pseudovirus ZM197M.PB7 (HIV-1)
[48] = target: HIV-1 envelope spike of pseudovirus R1166.c1 (HIV-1)
[49] = target: HIV-1 envelope spike of pseudovirus TRJO4551.58 (HIV-1)
[50] = target: Murine leukemia virus (MuLV) envelope on pseudovirus (Murine leukemia virus)

10-996 (antibody), sequence (VH): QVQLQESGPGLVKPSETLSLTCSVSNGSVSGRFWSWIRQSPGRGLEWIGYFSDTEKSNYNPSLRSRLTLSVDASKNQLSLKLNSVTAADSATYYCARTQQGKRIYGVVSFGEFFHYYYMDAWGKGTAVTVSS
10-996 (antibody), sequence (VL): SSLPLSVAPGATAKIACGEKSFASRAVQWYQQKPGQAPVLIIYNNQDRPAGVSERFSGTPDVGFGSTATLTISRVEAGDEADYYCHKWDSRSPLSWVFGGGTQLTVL
HIV-1 Env of pseudovirus YU-2 (HIV-1), sequence (P35961 32-843 limits assumed): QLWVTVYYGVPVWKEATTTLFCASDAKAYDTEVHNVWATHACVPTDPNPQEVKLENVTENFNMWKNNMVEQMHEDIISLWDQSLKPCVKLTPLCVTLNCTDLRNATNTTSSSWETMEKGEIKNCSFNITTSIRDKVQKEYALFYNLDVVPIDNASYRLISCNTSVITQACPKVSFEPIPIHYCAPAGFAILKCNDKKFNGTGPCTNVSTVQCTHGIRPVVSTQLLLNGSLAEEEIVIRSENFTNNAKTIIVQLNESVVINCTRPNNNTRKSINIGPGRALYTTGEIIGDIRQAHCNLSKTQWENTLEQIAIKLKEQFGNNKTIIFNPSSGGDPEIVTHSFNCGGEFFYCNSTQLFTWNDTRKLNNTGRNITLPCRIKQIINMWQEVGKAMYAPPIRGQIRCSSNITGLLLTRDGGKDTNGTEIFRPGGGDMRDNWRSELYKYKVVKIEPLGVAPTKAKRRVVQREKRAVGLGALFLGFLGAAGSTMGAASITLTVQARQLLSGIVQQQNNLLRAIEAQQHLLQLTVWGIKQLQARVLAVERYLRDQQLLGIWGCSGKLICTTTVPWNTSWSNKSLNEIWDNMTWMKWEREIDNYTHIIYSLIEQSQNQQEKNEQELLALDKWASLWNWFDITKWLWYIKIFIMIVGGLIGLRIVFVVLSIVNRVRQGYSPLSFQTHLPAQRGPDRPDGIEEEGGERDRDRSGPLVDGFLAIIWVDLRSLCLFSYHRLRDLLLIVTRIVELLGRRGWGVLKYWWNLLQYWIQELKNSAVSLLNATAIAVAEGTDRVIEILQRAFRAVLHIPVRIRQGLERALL

For 10-996 (antibody), which IC80 (TZM-bl neutralization) [1] is on record?
Its IC80 (TZM-bl neutralization) is 0.901 µg/mL.

What about the IC80 (TZM-bl neutralization) [2] of the same substance?
Its IC80 (TZM-bl neutralization) is 0.328 µg/mL.

What about the IC80 (TZM-bl neutralization) [3] of the same substance?
Its IC80 (TZM-bl neutralization) is 0.381 µg/mL.

What about the IC80 (TZM-bl neutralization) [4] of the same substance?
Its IC80 (TZM-bl neutralization) is greater than 50 µg/mL.

And the IC80 (TZM-bl neutralization) [5]?
The IC80 (TZM-bl neutralization) was greater than 50 µg/mL.

And the IC80 (TZM-bl neutralization) [6]?
The IC80 (TZM-bl neutralization) was 34.6 µg/mL.

And the IC80 (TZM-bl neutralization) [7]?
The IC80 (TZM-bl neutralization) was 0.049 µg/mL.

What about the IC80 (TZM-bl neutralization) [8] of the same substance?
Its IC80 (TZM-bl neutralization) is greater than 50 µg/mL.

And the IC80 (TZM-bl neutralization) [9]?
The IC80 (TZM-bl neutralization) was 7.15 µg/mL.

And the IC80 (TZM-bl neutralization) [10]?
Its IC80 (TZM-bl neutralization) is 0.07 µg/mL.

What about the IC80 (TZM-bl neutralization) [11] of the same substance?
Its IC80 (TZM-bl neutralization) is greater than 50 µg/mL.

And the IC80 (TZM-bl neutralization) [12]?
Its IC80 (TZM-bl neutralization) is greater than 50 µg/mL.

And the IC80 (TZM-bl neutralization) [13]?
Its IC80 (TZM-bl neutralization) is greater than 50 µg/mL.

What about the IC80 (TZM-bl neutralization) [14] of the same substance?
Its IC80 (TZM-bl neutralization) is less than 0.001 µg/mL.

What about the IC80 (TZM-bl neutralization) [15] of the same substance?
The IC80 (TZM-bl neutralization) was greater than 50 µg/mL.

And the IC80 (TZM-bl neutralization) [16]?
Its IC80 (TZM-bl neutralization) is greater than 50 µg/mL.

What about the IC80 (TZM-bl neutralization) [17] of the same substance?
Its IC80 (TZM-bl neutralization) is 0.173 µg/mL.

What about the IC80 (TZM-bl neutralization) [18] of the same substance?
The IC80 (TZM-bl neutralization) was 0.151 µg/mL.

What about the IC80 (TZM-bl neutralization) [19] of the same substance?
Its IC80 (TZM-bl neutralization) is greater than 50 µg/mL.

What about the IC80 (TZM-bl neutralization) [20] of the same substance?
Its IC80 (TZM-bl neutralization) is greater than 50 µg/mL.

What about the IC80 (TZM-bl neutralization) [21] of the same substance?
The IC80 (TZM-bl neutralization) was greater than 50 µg/mL.

What about the IC80 (TZM-bl neutralization) [22] of the same substance?
The IC80 (TZM-bl neutralization) was greater than 50 µg/mL.

What about the IC80 (TZM-bl neutralization) [23] of the same substance?
The IC80 (TZM-bl neutralization) was 0.422 µg/mL.

And the IC80 (TZM-bl neutralization) [24]?
The IC80 (TZM-bl neutralization) was 6.48 µg/mL.

And the IC80 (TZM-bl neutralization) [25]?
The IC80 (TZM-bl neutralization) was 0.891 µg/mL.

What about the IC80 (TZM-bl neutralization) [26] of the same substance?
The IC80 (TZM-bl neutralization) was greater than 50 µg/mL.

And the IC80 (TZM-bl neutralization) [27]?
Its IC80 (TZM-bl neutralization) is greater than 50 µg/mL.

What about the IC50 (TZM-bl neutralization) [28] of the same substance?
The IC50 (TZM-bl neutralization) was 0.086 µg/mL.

And the IC50 (TZM-bl neutralization) [29]?
The IC50 (TZM-bl neutralization) was greater than 50 µg/mL.

And the IC50 (TZM-bl neutralization) [30]?
The IC50 (TZM-bl neutralization) was 8.15 µg/mL.

What about the IC50 (TZM-bl neutralization) [31] of the same substance?
Its IC50 (TZM-bl neutralization) is greater than 50 µg/mL.

And the IC50 (TZM-bl neutralization) [32]?
Its IC50 (TZM-bl neutralization) is greater than 50 µg/mL.

And the IC50 (TZM-bl neutralization) [33]?
Its IC50 (TZM-bl neutralization) is 0.044 µg/mL.

And the IC50 (TZM-bl neutralization) [34]?
Its IC50 (TZM-bl neutralization) is greater than 50 µg/mL.

And the IC50 (TZM-bl neutralization) [35]?
Its IC50 (TZM-bl neutralization) is greater than 50 µg/mL.

And the IC50 (TZM-bl neutralization) [36]?
Its IC50 (TZM-bl neutralization) is greater than 50 µg/mL.

What about the IC50 (TZM-bl neutralization) [37] of the same substance?
Its IC50 (TZM-bl neutralization) is greater than 50 µg/mL.

What about the IC50 (TZM-bl neutralization) [38] of the same substance?
Its IC50 (TZM-bl neutralization) is 0.173 µg/mL.

And the IC50 (TZM-bl neutralization) [39]?
The IC50 (TZM-bl neutralization) was 0.005 µg/mL.

What about the IC50 (TZM-bl neutralization) [40] of the same substance?
The IC50 (TZM-bl neutralization) was greater than 50 µg/mL.

And the IC50 (TZM-bl neutralization) [41]?
Its IC50 (TZM-bl neutralization) is greater than 50 µg/mL.

What about the IC50 (TZM-bl neutralization) [42] of the same substance?
Its IC50 (TZM-bl neutralization) is less than 0.001 µg/mL.

And the IC50 (TZM-bl neutralization) [43]?
The IC50 (TZM-bl neutralization) was 28.4 µg/mL.

What about the IC50 (TZM-bl neutralization) [44] of the same substance?
The IC50 (TZM-bl neutralization) was 14 µg/mL.

What about the IC50 (TZM-bl neutralization) [45] of the same substance?
The IC50 (TZM-bl neutralization) was 0.147 µg/mL.

What about the IC50 (TZM-bl neutralization) [46] of the same substance?
The IC50 (TZM-bl neutralization) was greater than 50 µg/mL.

What about the IC50 (TZM-bl neutralization) [47] of the same substance?
The IC50 (TZM-bl neutralization) was greater than 50 µg/mL.

What about the IC50 (TZM-bl neutralization assay) [48] of the same substance?
Its IC50 (TZM-bl neutralization assay) is greater than 40 µg/mL.

And the IC80 (TZM-bl neutralization assay) [48]?
The IC80 (TZM-bl neutralization assay) was greater than 40 µg/mL.

And the IC50 (TZM-bl neutralization assay) [49]?
Its IC50 (TZM-bl neutralization assay) is 0.516 µg/mL.

What about the IC80 (TZM-bl neutralization assay) [49] of the same substance?
The IC80 (TZM-bl neutralization assay) was 4.26 µg/mL.

What about the IC50 (TZM-bl neutralization assay) [50] of the same substance?
The IC50 (TZM-bl neutralization assay) was greater than 40 µg/mL.

And the IC80 (TZM-bl neutralization assay) [50]?
Its IC80 (TZM-bl neutralization assay) is greater than 40 µg/mL.
